The assay addresses T1, Soluble human HER3 extracellular domain fused to Streptavidin Binding Protein (SBP) (human, UniProt P21860 20-643).
T1 construct: Order of the parts follows the printed name SBP-HER3 and is not otherwise stated; Used as HEK293 supernatant captured on streptavidin plates; also called SBP-HER3
Nature of the assay: ELISA, SBP-HER3 ECD captured on streptavidin plate; antibody concentration read from HER3 binding. For orientation: In an ELISA, binding on a coated surface is turned into a signal by an enzyme label.

Procedure: Soluble human HER3 extracellular domain fused to Streptavidin Binding Protein (SBP) was captured on a sreptavidine plate. […] For the standard coating, SBP-HER3 containing HEK293 supernatant was diluted (between 1:15 and 1:40) and incubated overnight at 2-80 C (25 μl per well). Intensive washing of the microtiter plate is necessary to remove remaining unbound SBP-HER3.
Antibodies according to the invention antibody were tested either undiluted or using a 12-step-dilution. 12.5 μl per well of each sample was incubated for 90 min at room temperature.

B1: Mab 205.10.1 (antibody, V domains shown)
VH: QVQLVQSGAEVKKPGASVKVSCKASGYTFRSSYISWVRQAPGQGLEWMGWIYAGTGSPSYNQKLQGRVTMTTDTSTSTAYMELRSLRSDDTAVYYCARHRDYYSNSLTYWGQGTLVTVSS
VL: DIVMTQSPDSLAVSLGERATINCKSSQSLLNSGNQKNYLTWYQQKPGQPPKLLIYWASTRESGVPDRFSGSGSGTDFTLTISSLQAEDVAVYYCQSDYSYPYTFGQGTKLEIK
notes: Humanized anti-HER3 antibody; Only variable domains are tied to it
Take B1: the “hu_HER3-ECD-ELISA c(µg/ml)” value turned out to be 583 µg/mL.

B2: Mab 205.10.3 (antibody, V domains shown)
VH: QVQLVQSGAEVKKPGASVKVSCKASGYTFRSSYISWVRQAPGQGLEWMGWIYAGTGSPSYNQKLQGRVTMTTDTSTSTAYMELRSLRSDDTAVYYCARHRDYYSNSLTYWGQGTLVTVSS
VL: DIVMTQSPDSLAVSLGERATINCKSSQSLLNSGNQKNYLTWYQQKPGQPPKLLIYWASTRESGVPDRFSGSGSGTDFTLTISSLQAEDVSIYYCQSDYSYPYTFGQGTKLEIK
notes: as for B1
B2: the “hu_HER3-ECD-ELISA c(µg/ml)” value amounted to 505 µg/mL.
